From patent US20220242935A1

Key:
Test in all cases: crystal structure of the Fab-NA complex
[1] = target: N2 NA ectodomain of A/Japan/305/1957 (H2N2) (influenza A virus A/Japan/305/1957 (H2N2))
[2] = target: N1 NA ectodomain of A/California/04/2009 (H1N1) (influenza A virus A/California/04/2009 (H1N1)) (UniProt Q6DPI6)
[3] = target: N9 NA ectodomain of A/Hunan/02650/2016 (H7N9) (influenza A virus A/Hunan/02650/2016 (H7N9))

1E01 Fab was tested, and the total buried surface area on the NA [1] was 900 Å2.
In the case of 1G01 Fab, the total buried surface area on the NA [2] is reported as 800 Å2.
In the case of 1G04 Fab, the total buried surface area on the NA [3] is reported as 1030 Å2.
